The target in the assay is His-tagged PD-L1 (programmed death-ligand 1) (UniProt Q9NZQ7). The experiment in a line: co-immunoprecipitation (IP: His, IB: Flag). Conditions: co-transfected plasmids, parent: 1.0.

We go through 1 substance from PMC9281127.

Sequence of UniProt Q9NZQ7 (Q9NZQ7 19-290): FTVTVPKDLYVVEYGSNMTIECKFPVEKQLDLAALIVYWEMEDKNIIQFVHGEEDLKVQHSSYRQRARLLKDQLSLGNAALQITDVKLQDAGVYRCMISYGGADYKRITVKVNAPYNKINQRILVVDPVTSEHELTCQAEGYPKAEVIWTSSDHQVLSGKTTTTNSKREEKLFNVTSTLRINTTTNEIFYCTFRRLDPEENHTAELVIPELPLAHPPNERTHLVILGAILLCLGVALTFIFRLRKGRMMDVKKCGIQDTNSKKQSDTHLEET

As to “Flag-tagged ZG16 (zymogen granule protein 16) (from UniProt O60844) K36A; R37A; K79A; R53A; R55A”, the ratio to parent runs as follows: (HCT116 cells) 0.6; (SW480 cells) 0.5.
